Literature values, collected in publication PMC4086743 (Amino acids, 2012).

| Molecule | sensitivity to chymotrypsin (chymotrypsin) | sensitivity to trypsin (trypsin) | resistance to proteolysis by MMP7 (MMP7) |
| --- | --- | --- | --- |
| HD5: human Paneth cell α-defensin HD5 (peptide, UniProt Q01523 20-94, looked up, Defensin-5) Defensin alpha 5: ESLQERADEATTQKQSGEDNQDLAISFAGNGLSALRTSGSQARATCYCRTGRCATRESLSGVCEISGRLYRLCCR | insensitive | insensitive |  |
| proCrp4: full-length precursor of Crp4 with electronegative proregion, recombinant (protein, UniProt P28311 20-92, looked up, pro-form) pro-form: DPIQNTDEETKTEEQPGEEDQAVSISFGGQEGSALHEKSLRGLLCYCRKGHCKRGERVRGTCGIRFLYCCPRR |  |  | completely resistant |
